The results in this text go back to the MegaScale stability set (Tsuboyama et al. 2023).

B1: EEHEE_rd3_0130 (parent)
chain: TKIIVNGKTFTAPTEEEAQKIAEKLAKKAGLTVHKKNGTFELK

Variants of B1 are the subject of the data set. Description: folding stability dG (cDNA display proteolysis); higher = more stable. Conditions: PBS, room temperature.
Turning to TKIIVNGKTFTAPTEEEAQKIAEKDAKKAGLTVHKKNGTFELK [L25D], the “folding stability dG” value was -0.802 kcal/mol. As for TKIIVNGKTFTAPTEEEAQKIAEKLAKKANLTVHKKNGTFELK [G30N], the figure is 0.349 kcal/mol; as for TKIIVNGKTFTAPTTEEAQKIAEKLAKKAGLTVHKKNGTFELK [E15T], 0.439 kcal/mol; as for TKIIVNGKTFTAPTLEEAQKIAEKLAKKAGLTVHKKNGTFELK [E15L], 0.994 kcal/mol.

Turning to TKIIVNGKTFTAPTYEEAQKIAEKLAKKAGLTVHKKNGTFELK [E15Y], the “folding stability dG” value is 1.42 kcal/mol. In the case of TKIIGNGKTFTAPTEEEAQKIAEKLAKKAGLTVHKKNGTFELK [V5G] it was -0.75 kcal/mol. For the variant TKIIWNGKTFTAPTEEEAQKIAEKLAKKAGLTVHKKNGTFELK [V5W], the “folding stability dG” value amounted to 1.48 kcal/mol.

TKIIANGKTFTAPTEEEAQKIAEKLAKKAGLTVHKKNGTFELK [V5A]: the “folding stability dG” value came to 0.171 kcal/mol.

Regarding TKIIHNGKTFTAPTEEEAQKIAEKLAKKAGLTVHKKNGTFELK [V5H], the “folding stability dG” value amounted to 0.397 kcal/mol.

With TFIIVNGKTFTAPTEEEAQKIAEKLAKKAGLTVHKKNGTFELK [K2F], the “folding stability dG” value is 0.565 kcal/mol. In the case of TKIIVNGKTFTAPAEEEAQKIAEKLAKKAGLTVHKKNGTFELK [T14A] it was -0.233 kcal/mol; in that of TKIIVNGKTFTAPVEEEAQKIAEKLAKKAGLTVHKKNGTFELK [T14V], -0.396 kcal/mol. Turning to TKIIVNGKTFTAPQEEEAQKIAEKLAKKAGLTVHKKNGTFELK [T14Q], the “folding stability dG” value is -0.297 kcal/mol. Take TKIIVNGKTFTIPTEEEAQKIAEKLAKKAGLTVHKKNGTFELK [A12I]: the “folding stability dG” value stood at 1.26 kcal/mol. As for TKIKVNGKTFTAPTEEEAQKIAEKLAKKAGLTVHKKNGTFELK [I4K], the figure is 0.465 kcal/mol. For the variant TKITVNGKTFTAPTEEEAQKIAEKLAKKAGLTVHKKNGTFELK [I4T], the “folding stability dG” value came out at 0.449 kcal/mol. On to TKIIVNGKTFTAPTEEEAQKIAEMLAKKAGLTVHKKNGTFELK [K24M], for which the “folding stability dG” value amounted to 1.14 kcal/mol. Turning to TKIIVNGKTFTAPTEEPAQKIAEKLAKKAGLTVHKKNGTFELK [E17P], the “folding stability dG” value was -0.793 kcal/mol. Turning to TKIIVNGKTFTAPTEEEVQKIAEKLAKKAGLTVHKKNGTFELK [A18V], the “folding stability dG” value was -0.585 kcal/mol. In the case of TKIIVNGKTFTAPTEEETQKIAEKLAKKAGLTVHKKNGTFELK [A18T], the “folding stability dG” value was -0.68 kcal/mol. As for TKIIVNGKTFTAPTEEERQKIAEKLAKKAGLTVHKKNGTFELK [A18R], the figure is -0.569 kcal/mol; as for TKIIVNGKTFTAPTEEEAQKIMEKLAKKAGLTVHKKNGTFELK [A22M], 0.143 kcal/mol; as for TKIIVNGKTFTAPTEEEAQKIFEKLAKKAGLTVHKKNGTFELK [A22F], 0.168 kcal/mol. As for TKIIVNGKTFTAPTEEEAQKIAEKLAKKAGLTVHKKNGTFQLK [E41Q], the figure is 0.186 kcal/mol.

Turning to TKIIVNGKTFTAPTEEEAQKIAEKLVKKAGLTVHKKNGTFELK [A26V], the “folding stability dG” value is -0.292 kcal/mol. As for TKIIVNGKTFTAPTEEEAQKIAEKLAKYAGLTVHKKNGTFELK [K28Y], the figure is 1.06 kcal/mol. In the case of TKIIVNGKTFTAPTEEEAQKIAEKLAKQAGLTVHKKNGTFELK [K28Q] it was 0.873 kcal/mol. For the variant TKIIVNGKTFTAPTEEEAQKIAEKLAKKAGLTVHKQNGTFELK [K36Q], the “folding stability dG” value came to 0.8 kcal/mol. Regarding TKIIVNSKTFTAPTEEEAQKIAEKLAKKAGLTVHKKNGTFELK [G7S], the “folding stability dG” value was -0.025 kcal/mol. In the case of TKIIVNLKTFTAPTEEEAQKIAEKLAKKAGLTVHKKNGTFELK [G7L] it was -0.186 kcal/mol; in that of TKIIVNKKTFTAPTEEEAQKIAEKLAKKAGLTVHKKNGTFELK [G7K], 0.029 kcal/mol. For TKIIVNYKTFTAPTEEEAQKIAEKLAKKAGLTVHKKNGTFELK [G7Y], the “folding stability dG” value amounted to 0.159 kcal/mol.

For TKIIVNGKTFTAPTEEEAQKIAEKLAKKAGLTVHIKNGTFELK [K35I], the “folding stability dG” value stood at 0.718 kcal/mol. In the case of TKIIVNGKTFTAPTEEEAQKIAEKLAKKAGLTVHFKNGTFELK [K35F] it was 1.61 kcal/mol.

Consider TKIIVNGKTFTAPTEEEAQKIAEKLAKKAGLTVHKKNGRFELK [T39R], for which the “folding stability dG” value turned out to be 0.935 kcal/mol. As to TKIIVNGKTFTAPTEEEAQKIAEKLAKKAGHTVHKKNGTFELK [L31H], the “folding stability dG” value was -0.13 kcal/mol. In the case of TKIIVNGKTFGAPTEEEAQKIAEKLAKKAGLTVHKKNGTFELK [T11G] it was -0.004 kcal/mol; in that of TKIIVNGKTFTAPTEEEAQKIAEKLAKKAGLTVHKKNPTFELK [G38P], 0.071 kcal/mol. With TKIIVNGKTFTACTEEEAQKIAEKLAKKAGLTVHKKNGTFELK [P13C], the “folding stability dG” value is 0.981 kcal/mol.

Take TKIIVNGKTFTAATEEEAQKIAEKLAKKAGLTVHKKNGTFELK [P13A]: the “folding stability dG” value turned out to be 0.804 kcal/mol. In the case of TKIIVNGKTFTATTEEEAQKIAEKLAKKAGLTVHKKNGTFELK [P13T] it was 0.634 kcal/mol. TKIIVNGKTFTAPTEEEAQKWAEKLAKKAGLTVHKKNGTFELK [I21W]: the “folding stability dG” value worked out at 1.3 kcal/mol. With TKIIVNGKTFTAPTEEEAQKQAEKLAKKAGLTVHKKNGTFELK [I21Q], the “folding stability dG” value was -0.043 kcal/mol.

As to TKIIVNGKTFTAPTEEEAQKIAEKLAKKAGLTVHKKNGTFENK [L42N], the “folding stability dG” value turned out to be 0.089 kcal/mol.

Take TKIIVNGKTFTAPTEEEAQKIAEKLAKKAGLIVHKKNGTFELK [T32I]: the “folding stability dG” value was 0.92 kcal/mol. For the variant TKIIVNGKTFTAPTEEEAWKIAEKLAKKAGLTVHKKNGTFELK [Q19W], the “folding stability dG” value is 1.12 kcal/mol. As for LKIIVNGKTFTAPTEEEAQKIAEKLAKKAGLTVHKKNGTFELK [T1L], the figure is 0.508 kcal/mol; as for TKIIVNGKTFTAPTEEEAQKIAEKLAKKAGLTVHKKNGTNELK [F40N], 0.021 kcal/mol. In the case of TKIIVNGKTFTAPTEEEAQKIAEKLAKKAGLTVHKKNGTIELK [F40I] it was 0.784 kcal/mol; in that of TKIIVNGKTFTAPTEEEAQKIAEKLAWKAGLTVHKKNGTFELK [K27W], 0.749 kcal/mol; in that of TKIIVNGKTFTAPTEEEAQKIAEKLAKKAGLTVHKKFGTFELK [N37F], -0.371 kcal/mol. As for TKIIVNGKTFTAPTEEEAQKIAEKLAKKAGLTVHKKKGTFELK [N37K], the figure is 0.391 kcal/mol; as for TKIIVNGKTFTAPTEEEAQKIAEKLAKKAGLTVHKKQGTFELK [N37Q], 0.281 kcal/mol.

For the variant TKIIVNGKTFTAPTEEEAQKIAEKLAKKAGLTVHKKPGTFELK [N37P], the “folding stability dG” value was determined as 0.201 kcal/mol. With TKIIVNGKTFTAPTEEEAQKIAEKLAKKIGLTVHKKNGTFELK [A29I], the “folding stability dG” value was determined as 0.979 kcal/mol. For TKWIVNGKTFTAPTEEEAQKIAEKLAKKAGLTVHKKNGTFELK [I3W], the “folding stability dG” value is -0.228 kcal/mol.

Regarding TKIIVNGKTFTAPTEEEAQKIAEKLAKKAGLTVMKKNGTFELK [H34M], the “folding stability dG” value stood at 0.601 kcal/mol. In the case of TKIIVNGKTFTAPTEEEAQKIAEKLAKKAGLTVAKKNGTFELK [H34A] it was 0.451 kcal/mol; in that of TKIIVNGKTFTAPTEEEAQKIAEKLAKKAGLTVKKKNGTFELK [H34K], 0.497 kcal/mol.
